According to US20230056821A1:

What was measured:
PlGF = biological target: T1, PlGF (UniProt P49763); assay: SPR, Biacore T200
T1 sequence (looked up): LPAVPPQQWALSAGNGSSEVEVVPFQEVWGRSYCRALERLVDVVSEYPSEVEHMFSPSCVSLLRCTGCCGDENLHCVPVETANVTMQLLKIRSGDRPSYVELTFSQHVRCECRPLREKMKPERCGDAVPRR

VEGF-A121 = VEGF-A121 (UniProt P15692); assay: SPR, Biacore T200
VEGF-A165 (human) [1] = biological target: VEGF-A165 (human) (UniProt P15692); assay: SPR, Biacore T200
VEGF-A165 (human) [2] = biological target: VEGF-A165 (human) (UniProt P15692); assay: cell-based or functional assay
C3b [3] = biological target: C3b (UniProt P01024); assay: SPR, Biacore T200
C4b (human) [4] = biological target: C4b (human) (UniProt P0C0L4); assay: SPR, Biacore T200
C3b [5] = biological target: C3b (UniProt P01024); assay: cell-based or functional assay
C4b (human) [6] = biological target: C4b (human) (UniProt P0C0L4); assay: cell-based or functional assay

VEGF-A121, sequence (P15692 other isoform, or with tags, fused parts or gaps limits assumed): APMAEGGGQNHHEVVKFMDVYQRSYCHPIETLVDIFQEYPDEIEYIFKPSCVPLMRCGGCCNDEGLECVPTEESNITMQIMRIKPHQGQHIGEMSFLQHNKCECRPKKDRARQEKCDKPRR
C4b (human), sequence (P0C0L4 20-1744): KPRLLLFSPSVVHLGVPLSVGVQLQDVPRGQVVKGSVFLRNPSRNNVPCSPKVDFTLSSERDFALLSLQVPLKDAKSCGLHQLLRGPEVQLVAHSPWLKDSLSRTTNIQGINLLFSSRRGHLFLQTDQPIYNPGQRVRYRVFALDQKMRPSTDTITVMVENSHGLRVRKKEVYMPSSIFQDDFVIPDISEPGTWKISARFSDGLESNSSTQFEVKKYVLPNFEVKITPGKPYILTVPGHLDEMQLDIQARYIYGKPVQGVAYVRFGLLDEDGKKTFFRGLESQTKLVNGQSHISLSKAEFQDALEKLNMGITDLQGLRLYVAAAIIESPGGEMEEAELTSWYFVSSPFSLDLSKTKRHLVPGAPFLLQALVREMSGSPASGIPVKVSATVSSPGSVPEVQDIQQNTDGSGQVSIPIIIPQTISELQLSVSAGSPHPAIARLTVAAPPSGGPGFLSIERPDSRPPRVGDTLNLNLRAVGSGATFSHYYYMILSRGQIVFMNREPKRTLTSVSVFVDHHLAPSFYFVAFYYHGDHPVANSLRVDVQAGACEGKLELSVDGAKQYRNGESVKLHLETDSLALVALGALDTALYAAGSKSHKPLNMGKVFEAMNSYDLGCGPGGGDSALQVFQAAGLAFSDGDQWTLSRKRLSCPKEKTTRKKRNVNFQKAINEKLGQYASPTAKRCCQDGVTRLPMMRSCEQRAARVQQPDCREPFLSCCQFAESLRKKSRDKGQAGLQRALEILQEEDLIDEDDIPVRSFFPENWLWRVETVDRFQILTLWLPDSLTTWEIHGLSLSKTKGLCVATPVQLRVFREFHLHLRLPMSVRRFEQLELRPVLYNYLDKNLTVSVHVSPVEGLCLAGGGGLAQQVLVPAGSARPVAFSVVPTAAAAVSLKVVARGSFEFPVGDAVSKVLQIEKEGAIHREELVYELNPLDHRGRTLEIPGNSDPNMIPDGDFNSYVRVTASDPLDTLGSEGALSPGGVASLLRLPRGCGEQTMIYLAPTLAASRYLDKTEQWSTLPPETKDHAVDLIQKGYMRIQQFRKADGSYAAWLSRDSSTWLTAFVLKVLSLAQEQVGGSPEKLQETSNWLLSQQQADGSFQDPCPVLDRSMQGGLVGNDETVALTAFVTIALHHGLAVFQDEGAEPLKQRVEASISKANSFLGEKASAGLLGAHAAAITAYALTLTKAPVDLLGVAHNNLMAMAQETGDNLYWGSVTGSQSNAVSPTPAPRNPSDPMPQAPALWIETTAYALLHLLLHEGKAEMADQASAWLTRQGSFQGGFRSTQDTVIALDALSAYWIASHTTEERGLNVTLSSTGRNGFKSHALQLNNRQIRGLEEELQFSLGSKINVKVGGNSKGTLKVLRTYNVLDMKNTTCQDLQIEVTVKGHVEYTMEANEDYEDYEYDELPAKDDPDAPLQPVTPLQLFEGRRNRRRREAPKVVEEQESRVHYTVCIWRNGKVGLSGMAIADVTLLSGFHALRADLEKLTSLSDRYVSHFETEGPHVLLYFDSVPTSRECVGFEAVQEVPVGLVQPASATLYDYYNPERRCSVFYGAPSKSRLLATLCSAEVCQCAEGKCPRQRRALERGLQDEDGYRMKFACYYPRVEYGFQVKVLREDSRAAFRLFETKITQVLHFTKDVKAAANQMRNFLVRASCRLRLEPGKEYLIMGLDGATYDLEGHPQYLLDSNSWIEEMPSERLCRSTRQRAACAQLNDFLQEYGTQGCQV
VEGF-A165 (human), sequence (P15692 other isoform, or with tags, fused parts or gaps limits assumed): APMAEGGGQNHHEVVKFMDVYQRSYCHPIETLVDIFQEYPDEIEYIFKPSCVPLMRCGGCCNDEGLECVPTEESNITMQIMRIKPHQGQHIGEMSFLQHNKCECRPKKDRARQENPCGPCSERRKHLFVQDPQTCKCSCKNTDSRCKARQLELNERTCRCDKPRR
Aflibercept injection (Fc fusion), sequence (chain): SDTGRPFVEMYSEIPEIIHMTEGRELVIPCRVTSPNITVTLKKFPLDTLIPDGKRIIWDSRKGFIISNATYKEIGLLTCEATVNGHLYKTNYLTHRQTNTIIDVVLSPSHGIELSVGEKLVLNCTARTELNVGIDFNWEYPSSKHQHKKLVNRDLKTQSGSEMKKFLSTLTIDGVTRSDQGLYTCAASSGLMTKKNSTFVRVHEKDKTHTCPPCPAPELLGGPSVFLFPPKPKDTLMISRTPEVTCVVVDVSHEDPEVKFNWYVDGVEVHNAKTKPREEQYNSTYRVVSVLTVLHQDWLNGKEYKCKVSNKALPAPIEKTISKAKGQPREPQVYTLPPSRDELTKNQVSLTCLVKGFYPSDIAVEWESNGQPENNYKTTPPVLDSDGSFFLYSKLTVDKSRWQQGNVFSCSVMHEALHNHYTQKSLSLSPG

## Aflibercept injection (Fc fusion)
PlGF
  Kd: 1.16 nM
  koff: 0.00384 s⁻¹
  kon: 3.32e+06 M⁻¹ s⁻¹
VEGF-A121
  Kd: 0.00778 nM
  koff: 4.25e-05 s⁻¹
  kon: 5.46e+06 M⁻¹ s⁻¹
VEGF-A165 (human) [1]
  Kd: 0.00387 nM
  koff: 7.93e-05 s⁻¹
  kon: 2.05e+07 M⁻¹ s⁻¹
VEGF-A165 (human) [2]
  EC50 (ng/mL), inhibition of VEGF-A-induced HUVEC proliferation (CCK-8): 41 ng/mL
  EC50, inhibition of VEGF-A-induced HUVEC proliferation (CCK-8): 0.357 nM

## Human complement receptor type 1 (from UniProt P17927 42-1971)
C3b [3]
  Kd: 0.35 nM
  koff: 0.0011 s⁻¹
  kon: 3.16e+06 M⁻¹ s⁻¹
C4b (human) [4]
  Kd: 17.1 nM
  koff: 0.000805 s⁻¹
  kon: 47000 M⁻¹ s⁻¹

## IBI302 (Fc fusion)
C3b [3]
  Kd: 9.96 nM
  koff: 0.00287 s⁻¹
  kon: 288000 M⁻¹ s⁻¹
C4b (human) [4]
  Kd: 7.75 nM
  koff: 0.00335 s⁻¹
  kon: 432000 M⁻¹ s⁻¹
C3b [5]
  EC50, inhibition of hemolysis of rabbit red blood cells induced by human serum complement (alternative pathway): 14.6 nM
  EC50, inhibition of hemolysis of sensitized sheep red blood cells induced by human serum complement (classical pathway): 2.51 nM
C4b (human) [6]
  EC50, inhibition of hemolysis of rabbit red blood cells induced by human serum complement (alternative pathway): 14.6 nM
  EC50, inhibition of hemolysis of sensitized sheep red blood cells induced by human serum complement (classical pathway): 2.51 nM
